Values quoted from earlier work as cited in article PMC6989705 (EJNMMI Radiopharmacy and Chemistry, 2020).

Details: endogenous ligand; ref Rai et al. [2015]; cited from earlier work
Experimental: Somatostatin receptors (SSTRs) are validated biomarkers in the management of NETs. The short biological half-life of the endogenous ligand somatostatin (< 5 min) prevents pharmacological use of this peptide (Rai et al. [2015]). Therefore, synthetic somatostatin analogs that are more resistant to peptidases, such as octreotide, were developed. Using radiolabeled somatostatin analogs, the presence of SSTRs on tumor cells may be exploited for molecular imaging and targeted radionuclide therapy (TRNT) for the treatment of unresectable neuroendocrine tumors (Pauwels et al. [2018]; Deroose et al. [2 ...

somatostatin
biological half-life: < 5 min
